{"source": "paper PMC10399710", "about": "“The invariant chain CD74 protein is a cell surface binding partner of TIMP‐1 in breast cancer cells” (Molecular Oncology, 2023)", "binders": {"B1": {"name": "his6‐tagged human recombinant TIMP‐1 protein (rTIMP‐1) (natural protein)", "chain": "not shown", "modifications": "extensively glycosylated"}}, "molecular_target": "T1, MHC class II‐associated invariant chain γ (CD74), endogenous in MDA‐MB‐231 cells (human (endogenous in MDA‐MB‐231), UniProt P04233 1-296)", "T1 sequence (looked up)": "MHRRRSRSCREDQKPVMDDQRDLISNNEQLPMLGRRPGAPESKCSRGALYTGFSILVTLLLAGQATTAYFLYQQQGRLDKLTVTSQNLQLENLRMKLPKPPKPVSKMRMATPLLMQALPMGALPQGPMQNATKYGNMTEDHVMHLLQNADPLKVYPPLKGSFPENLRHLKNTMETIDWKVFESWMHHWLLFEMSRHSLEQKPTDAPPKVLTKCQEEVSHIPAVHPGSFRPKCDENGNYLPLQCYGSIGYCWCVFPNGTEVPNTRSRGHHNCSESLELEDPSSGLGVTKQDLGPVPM", "test": "cell-based or functional assay"}
{"binder": "B1", "values": [{"measurement": "P‐Akt (Ser473)/Akt ratio in MDA‐MB‐231 cells after 10 and 30 min of rTIMP‐1, normalised to 0 min (western blot)", "result": "2.3 P‐Akt/Akt ratio normalised to the 0 min sample"}]}
